In the supplement of paper PMC7125110:
± gives the standard error. For some assays here: Fewer inactive variants are shown than the library holds.

B1: glmS ribozyme (parent)
chain: AUAAAAGCGCCAGAACUACAGAAAUGUAGUUGACGAGGAGGAGGUUUAUCGAAUUUUCGGCGGAUGCCUCCAAA

Experiments:
Details in all cases: with glucosamine-6-phosphate
glucosamine-6-phosphate [1] = variants of: B1; assay: kcat; higher = faster cleavage; RNA array
In short: (§1)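 Tracking of barcoded ribozyme variants used a hybridised Cy3 probe at 37 °C, after in situ transcription by E. coli RNA polymerase on sequenced MiSeq chips. The flowed solution held 40 μM to 10 mM glucosamine-6-phosphate in HEPES/KCl/Mg(OAc)2 buffer, and imaging ran over ~14 h. kobs was taken from exponential decay fits of normalised per-tile medians, and kcat and KM from weighted Michaelis–Menten fits.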

glucosamine-6-phosphate [2] = variants of: B1; assay: self-cleavage kobs at 40 uM GlcN6P; higher = faster cleavage; RNA array
In short: as §1

glucosamine-6-phosphate [3] = variants of: B1; assay: self-cleavage kobs at 640 uM GlcN6P; higher = faster cleavage; RNA array
In short: as §1

glucosamine-6-phosphate [4] = variants of: B1; assay: self-cleavage kobs at 2500 uM GlcN6P; higher = faster cleavage; RNA array
In short: as §1

glucosamine-6-phosphate [5] = variants of: B1; assay: self-cleavage kobs at 10000 uM GlcN6P; higher = faster cleavage; RNA array
In short: as §1

glucosamine-6-phosphate [6] = variants of: B1; assay: KM; higher = weaker cofactor use; RNA array
In short: as §1

glucosamine-6-phosphate [7] = variants of: B1; assay: self-cleavage kobs at 160 uM GlcN6P; higher = faster cleavage; RNA array
In short: as §1

Variant | kcat (glucosamine-6-phosphate [1]) [s⁻¹] | self-cleavage kobs at 40 uM GlcN6P (glucosamine-6-phosphate [2]) [s⁻¹] | self-cleavage kobs at 640 uM GlcN6P (glucosamine-6-phosphate [3]) [s⁻¹] | self-cleavage kobs at 2500 uM GlcN6P (glucosamine-6-phosphate [4]) [s⁻¹] | self-cleavage kobs at 10000 uM GlcN6P (glucosamine-6-phosphate [5]) [s⁻¹] | KM (glucosamine-6-phosphate [6]) [µM] | self-cleavage kobs at 160 uM GlcN6P (glucosamine-6-phosphate [7]) [s⁻¹]
C11A G13A | < 1e-05 | < 1e-05 |  |  |  |  | 
A6C A15C | 3.27e-05 ± 1.8e-06 |  |  |  |  |  | 
C11A U57A | < 1e-05 |  |  |  |  |  | 
C11A C34G G60U A64G | < 1e-05 | < 1e-05 | < 1e-05 |  |  |  | 
G9A C34G C67A | < 1e-05 |  |  | < 1e-05 |  |  | 
C11G A12C | 0.000156 ± 3.2e-05 |  |  | 6.61e-05 ± 1.2e-05 | 0.00011 ± 1.3e-05 |  | 
A6U U46C | 2.4e-05 ± 7.8e-07 |  |  |  |  | 2710 ± 290 | < 1e-05
A6U U31A U47G C50A A64G C68U | 2.33e-05 ± 2.2e-06 |  |  |  |  |  | 
C11G A33U U54G C67A C71U | 1.15e-05 ± 1.8e-06 |  |  |  |  |  | 
C10G G59A | < 1e-05 | < 1e-05 |  |  |  |  | < 1e-05
A6U A42G | 0.000505 ± 0.00011 |  | 8.54e-05 ± 1.6e-05 | 0.000156 ± 5.1e-05 | 0.00038 ± 6e-05 | 3730 ± 1400 | 
C11A A15C | 7.9e-05 ± 2.8e-05 |  |  | 8.45e-05 ± 1.9e-05 | 5.67e-05 ± 2.2e-05 |  | 
C8G G37U | < 1e-05 |  |  |  |  |  | < 1e-05
G7U C10U G37A C67A | 3.55e-05 ± 1.6e-05 |  |  |  |  |  | 
C10G A12C | 3.86e-05 ± 1.4e-05 |  |  |  | 2.24e-05 ± 9.4e-06 |  | 
C10U A53U G59C C68G | < 1e-05 | < 1e-05 |  |  |  |  | 
G9U A14G | 1.09e-05 ± 5.1e-06 | < 1e-05 |  | < 1e-05 | < 1e-05 |  | 
A6G C10A | < 1e-05 | < 1e-05 |  |  | < 1e-05 |  | 
G9A U54C | 0.000246 ± 5.5e-05 |  |  |  | 3.34e-05 ± 1.3e-05 |  | 
A6G U31C | 6.74e-05 ± 1.3e-05 |  |  | 5.13e-05 ± 7.6e-06 | 5.58e-05 ± 7.5e-06 |  | 
G7A G32A C50G | 4.21e-05 ± 1.3e-05 | 4.2e-05 ± 1.6e-05 |  | 6.89e-05 ± 2.8e-05 |  |  | 4.85e-05 ± 1.9e-05
C10A U30A C68U | 7.99e-05 ± 2.3e-05 |  |  |  |  |  | 8.08e-05 ± 2.5e-05
C11G G51A | < 1e-05 | < 1e-05 |  |  | < 1e-05 | 30.6 ± 15 | 
C10U A14C U30A G35A G38A | < 1e-05 |  |  |  |  |  | 
A6U A14U | 4.98e-05 ± 1.9e-06 |  | 3.6e-05 ± 1.2e-05 | 4.51e-05 ± 1.4e-05 | 4.79e-05 ± 6.3e-06 | 310 ± 92 | 

Variant | kcat (glucosamine-6-phosphate [1]) [s⁻¹] | self-cleavage kobs at 40 uM GlcN6P (glucosamine-6-phosphate [2]) [s⁻¹] | self-cleavage kobs at 640 uM GlcN6P (glucosamine-6-phosphate [3]) [s⁻¹] | self-cleavage kobs at 2500 uM GlcN6P (glucosamine-6-phosphate [4]) [s⁻¹] | self-cleavage kobs at 10000 uM GlcN6P (glucosamine-6-phosphate [5]) [s⁻¹] | KM (glucosamine-6-phosphate [6]) [µM] | self-cleavage kobs at 160 uM GlcN6P (glucosamine-6-phosphate [7]) [s⁻¹]
G9A C71U | 5.71e-05 ± 4.6e-06 |  |  |  |  |  | 
A6G G37U | < 1e-05 | < 1e-05 |  |  | < 1e-05 |  | < 1e-05
C11A A14U | 9.91e-05 ± 4.5e-06 |  | 4.4e-05 ± 1e-05 | 6.89e-05 ± 9.1e-06 | 9.18e-05 ± 8.6e-06 | 947 ± 180 | 
C11A A14C | 6.31e-05 ± 3.4e-06 |  |  | 3.05e-05 ± 1.3e-05 | 4.9e-05 ± 1.5e-05 | 2820 ± 410 | 
C10G G37U | < 1e-05 |  |  |  |  |  | 
A6C C34A G37A G38A G63U C68U C70G | 1.43e-05 ± 4.9e-06 |  | < 1e-05 |  |  |  | 
A6U U69C | 8.65e-05 ± 8.1e-06 |  | 6.1e-05 ± 2.4e-05 | 8.15e-05 ± 2.4e-05 | 7.96e-05 ± 1.8e-05 |  | 
G7U A36C A48U | < 1e-05 |  | < 1e-05 |  |  |  | 
A6G U56G U69G | 1.41e-05 ± 3e-06 |  |  |  |  |  | 
C10A C58G | 1.34e-05 ± 2.4e-06 |  |  |  |  |  | 
C10A C58U | < 1e-05 |  | < 1e-05 |  |  |  | 
A6U C71G | 3.27e-05 ± 8.4e-06 |  | 5.72e-05 ± 1.3e-05 | 2.85e-05 ± 1e-05 | 2.69e-05 ± 8e-06 |  | 
A6U C71A | 5.43e-05 ± 1.1e-06 |  |  | 3.22e-05 ± 1.3e-05 | 4.63e-05 ± 1.1e-05 | 1730 ± 140 | 
C8G C61A | < 1e-05 | < 1e-05 |  | < 1e-05 |  |  | < 1e-05
C11A G66U | < 1e-05 | < 1e-05 | < 1e-05 | < 1e-05 |  | 58.7 ± 26 | 
C10G A39G | < 1e-05 |  |  |  |  |  | < 1e-05
A6U U55G | 0.00137 ± 0.00067 |  | 4.48e-05 ± 1e-05 | 0.000118 ± 1.9e-05 | 0.000416 ± 6.4e-05 |  | 
G7C A53G | < 1e-05 |  |  |  | < 1e-05 |  | 
G9A G32C C67A | < 1e-05 |  |  | < 1e-05 |  | 304 ± 150 | 
C10U A64G | 3.72e-05 ± 4.4e-06 |  |  | 3.75e-05 ± 5.1e-06 | 3.21e-05 ± 5.8e-06 |  | 
C10A U57C C61U | < 1e-05 |  |  |  | < 1e-05 |  | 
C10A A12U C71U | 1.55e-05 ± 6.5e-07 |  |  |  |  | 21.5 ± 9.2 | 
C10U C11U | 3.12e-05 ± 1.5e-05 | < 1e-05 |  |  |  |  | < 1e-05
C10A A12G | < 1e-05 | < 1e-05 |  |  | < 1e-05 |  | 
